Assay results as given in US20230057602A1, “METHODS OF TREATMENT WITH ANTIBODIES AGAINST BCMA AND CD3” (BRISTOL-MYERS SQUIBB COMPANY, priority 2019, published 2023).

Assays:
[1] = system: Relapsed/Refractory Multiple Myeloma (RRMM) patients; experiment: Clinical study of CC-93269 in RRMM: safety, cytokine release syndrome (CRS); assay type: in vivo, human
Description: CC-93269 (42-TCBcv), a bispecific antibody that specifically binds to BCMA bivalently and CD3 monovalently, was administered intravenously over 2 hours on Days 1, 8, 15, and 22 for Cycles 1-3; Days 1 and 15 for Cycles 4-6; and on Day 1 for Cycle 7 and beyond, all in 28-day cycles. […] 5 patients received a starting dose of 6 mg on Cycle 1 Day 1, followed by a dose of 10 mg on Cycle 1 Day 8 and thereafter (Cohort 7, n=5).
CRS prophylaxis was implemented with dexamethasone (up to 20 mg intravenous or equivalent) for the first dose and dose increases in patients receiving ≥6 mg. In Cohorts 1-4, dexamethasone was not used as a premedication.
Patients were monitored for clinical signs and symptoms associated with CRS (Lee, 2014) and CRS events were graded and treated according to the common CTCAE CRS grading scale (Lee, 2015).
CC-93269 was administered intravenously over 2 hours on Days 1, 8, 15, and 22 for Cycles 1-3; Days 1 and 15 for Cycles 4-6; and on Day 1 for Cycle 7 and beyond, all in 28-day cycles. Patients received a starting dose of 3 mg on Cycle 1 Day 1, followed by a dose of 6 mg on Cycle 1 Day 8 and thereafter.
Cohorts 8 (n=6) and 9 (n=5) differ in baseline multiple myeloma tumor burden based on percentage of bone marrow plasma cells and/or the presence of extramedullary disease (Cohort 8 including subjects with ≤50% bone marrow plasma cells [biopsy or aspirate] and ≤5 extramedullary lesions and Cohort 9 including subjects with >50% bone marrow plasma cells or >5 extramedullary lesions). Patients with lower (Cohort 8) and higher (Cohort 9) tumour burden were enrolled to evaluate possible differences in tolerability based on the rationale that the only patient of Cohorts 1-7 to experience Grade ≥3 CRS had extensive extramedullary disease at enrolment.
In Cohorts 8 and 9, all patients received dexamethasone (up to 20 mg intravenous or equivalent) as prophylaxis for CRS prior to the first dose, the second dose, any dose increase, and after dose interruption of more than 2 weeks occurring during Cycles 1 to 6. Patients were monitored, graded, and treated for CRS in the same way as for Cohorts 1-7 in Example 1.

[2] = Clinical study of CC-93269 in RRMM: pharmacokinetics (exposure); assay type: in vivo, human
Description: CC-93269 (42-TCBcv), a bispecific antibody that specifically binds to BCMA bivalently and CD3 monovalently, was administered intravenously over 2 hours on Days 1, 8, 15, and 22 for Cycles 1-3; Days 1 and 15 for Cycles 4-6; and on Day 1 for Cycle 7 and beyond, all in 28-day cycles. 14 patients received a fixed dose of CC-93269 at each of the intervals: 0.15 mg (Cohort 1, n=1), 0.5 mg (Cohort 2, n=1), 1.5 mg (Cohort 3, n=1), 3 mg (Cohort 4, n=4), 6 mg (Cohort 5, n=3) or 10 mg (Cohort 6, n=4). 5 patients received a starting dose of 6 mg on Cycle 1 Day 1, followed by a dose of 10 mg on Cycle 1 Day 8 and thereafter (Cohort 7, n=5).
This phenomenon was not observed at 3 mg doses.

[3] = Subcutaneous versus intravenous bioavailability (data not shown); assay type: in vivo
Description: In some embodiments of any aspect of the invention, the multispecific (e.g. bispecific) antibody is administered intravenously or subcutaneously.

CC-93269: bispecific antibody that specifically binds to BCMA bivalently and CD3 monovalently; SEQ ID NO:48, 55, 56, 57 (2×)
patients who experienced CRS ([1]; 11 patients, 3/6 mg dose regimen (Cohorts 8 and 9)): 54.5%
subjects with Grade 2 or higher CRS events ([1]; 11 subjects receiving 3/6 mg): 18.2%
subjects with Grade 2 or higher CRS events ([1]; 12 subjects, 6 mg, 6/10 mg, or 10 mg doses): 50%
subjects who experienced CRS ([1]; 12 subjects, 6 mg, 6/10 mg, or 10 mg doses (Cohorts 5 to 7)): 100%
CRS, maximum Grade ([1]; Cohort 6, consecutive doses of 6 mg, all CRS events in Cycle 1): 2
CRS frequency or severity, higher versus lower tumor burden ([1]; Cohort 9 compared with Cohort 8): no increase observed
Grade 3 or higher CRS events ([1]; Cohorts 8 and 9): no Grade 3 or higher CRS events were reported
severity of CRS in comparison with Cohorts 5 to 7 ([1]; Cohorts 8 and 9): generally decreased
CRS events of Grade 1 ([1]; Cohorts 8 and 9, 8 events): 75%
CRS events of Grade 2 ([1]; Cohorts 8 and 9, 8 events): 25%
outcome of CRS events ([1]; Cohorts 8 and 9, tocilizumab and/or dexamethasone): resolved with standard treatments
death on study ([1]; One patient, 6 mg first dose and 10 mg on Cycle 1 Day 8 (Cohort 7)): died on the study in the setting of CRS
CRS events lasting more than 3 days ([1]; all cohorts 1 to 9): 4 of 36
CRS events occurring with the first dose on C1D1 ([1]; all cohorts 1 to 9): 73.3%
CRS events occurring with the second dose on C1D8 ([1]; all cohorts 1 to 9): 23.3%
duration of a CRS event, range ([1]; all cohorts 1 to 9): 1 to 7 days
maximum time to first onset of CRS ([1]; all cohorts 1 to 9): 3 days
median duration of a CRS event ([1]; all cohorts 1 to 9): 2 days
median time to first onset of CRS ([1]; all cohorts 1 to 9): 1 days
CRS events occurring with subsequent doses ([1]; all cohorts 1 to 9, limited to Grade ≤2 events): 2.7%
tolerability ([1]; consecutive doses of ≤3 mg, no CRS prophylactic): well-tolerated
Cytokine release syndrome, maximum Grade ([1]; fixed dose of ≤3 mg): 1
CRS Grade after the first dose ([1]; one patient of Cohort 7, Cycle 1 Day 1, 6 mg): 3
CRS Grade after the second dose ([1]; same patient of Cohort 7, Cycle 1 Day 8, 10 mg): 5
large increases in exposure after multiple doses ([2]; 3 mg doses): not observed
exposure after multiple doses ([2]; doses ≥6 mg): large increases in exposure
bioavailability of subcutaneous administration [3]: comparable bioavailability to intravenous administration
